# ± gives the standard deviation of the averaged measurements.
# B1: library; a variant is named by its letters at N, in order (parent)
# chain: AATGTTGTTGATGCAACCATAAAGTGATATTTAATAATTATTTATAATCAGCAACTTAACCACAAAACAACCATATATTGATATNTCACAAAACAACCATAANTTGATATTTTTGTGAATCGAGTATTTCAGCAAAACTACTGCAGTAAGAA
# Assays:
# [1] = variants of: B1; test: relative integration efficiency (T-LR orientation) vs wild-type transposon end (log2 (normalized fold change)); transposon end mutated: left end; higher = more efficient transposition; details: with VchCAST RNA-guided transposition machinery (E. coli BL21(DE3) host, lacZ target)
# How it was run: (§1)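 Pools of 1549 left-end or 1849 right-end barcoded transposon variants were cloned into a pUC57 mini-transposon donor and co-transformed into E. coli BL21(DE3) with a T7-driven effector plasmid carrying a CRISPR array, tniQ-cas8-cas7-cas6 and tnsA-tnsB-tnsC. Plating used 0.1 mM IPTG at 37°C for 18 h, and input plasmids and genomic integration junctions were PCR-amplified for Illumina sequencing, with two biological output replicates and four reference barcodes. Relative integration efficiency is the log-transformed fold change of output over input barcode abundance, normalised to the reference barcodes.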
# [2] = variants of: B1; test: relative integration efficiency (T-RL orientation) vs wild-type transposon end (log2 (normalized fold change)); transposon end mutated: left end; higher = more efficient transposition; details: with VchCAST RNA-guided transposition machinery (E. coli BL21(DE3) host, lacZ target)
# How it was run: as §1
Variant,relative integration efficiency (log2) [1],relative integration efficiency (log2) [2]
CG A118C,0.243 ± 0.42,-0.0886 ± 0.026
CG A118T,-0.185 ± 0.24,-0.0188 ± 0.11
CG A118G,-0.0561 ± 0.73,-0.144 ± 0.097
CG A75C T76G A77C T78G,-2.25 ± 1.6,-1.8 ± 0.61
CG A65T A66T,0.447 ± 0.39,0.107 ± 0.0079
CG A75C,0.0557 ± 0.24,0.219 ± 0.63
CG A75T,-0.0748 ± 0.42,-0.289 ± 0.15
CG A75G,-0.592 ± 0.42,-0.877 ± 0.4
CG C52G A53T A54T C55G,0.133 ± 0.24,0.0283 ± 0.2
AG A83C T84G T86G,-1.31 ± 0.49,-0.668 ± 0.067
CG C17G C71G C97G,-1.57 ± 1,-1.28 ± 0.76
CG A93T C94G,-1.04 ± 0.89,-1.35 ± 0.65
CG C49G A50T G51C C52G,-1.24 ± 0.76,-1.58 ± 0.9
CG A92T A93T,-0.29 ± 0.86,-0.445 ± 0.23
CG A88T C89G,0.362 ± 0.31,0.178 ± 0.048
CG C14A A15C A16C C17A,-1.81 ± 1,-1.38 ± 0.6
CG C55G T56A T57A A58T,-2.28 ± 0.67,-0.983 ± 0.39
CG A95T A96T,-0.891 ± 0.57,-0.379 ± 0.28
CG A92T A93T C94G A95T,-3.64 ± 1.2,-1.61 ± 0.83
CG A70C C71A C72A A73C,-2 ± 1.7,-2.13 ± 0.84
CG A109C,0.0163 ± 0.22,-0.193 ± 0.42
CG A109T,0.223 ± 0.47,0.209 ± 0.39
CG A109G,-0.737 ± 0.88,-0.662 ± 0.16

Variant,relative integration efficiency (log2) [1],relative integration efficiency (log2) [2]
CG A69C A70C,-0.684 ± 0.62,-0.537 ± 0.29
CG A73T T74A A75T T76A,-1.64 ± 0.86,-0.919 ± 0.62
CG A92C A93C C94A A95C,-1.74 ± 0.33,-1.09 ± 0.75
CG A75T T76A,-0.104 ± 0.2,-0.129 ± 0.13
CG A70T,-0.297 ± 0.68,-0.12 ± 0.26
CG A70C,0.268 ± 0.068,0.0994 ± 0.073
CG A70G,-0.515 ± 0.21,-0.664 ± 0.41
CG A95G,-1.23 ± 0.42,-0.845 ± 0.39
CG A95T,-0.598 ± 0.89,-0.00814 ± 0.24
CG A95C,-0.179 ± 0.35,-0.318 ± 0.063
CG A101C A102C,-1.64 ± 0.96,-1.55 ± 0.55
CG C18A C72A C98A,-1.73 ± 0.24,-1.91 ± 0.81
CG A91T A92T,0.705 ± 0.2,0.108 ± 0.066
CG A96T C97G,-0.64 ± 0.43,-0.723 ± 0.29
CG C55G,0.245 ± 0.15,0.177 ± 0.069
CG C55T,0.102 ± 0.26,-0.123 ± 0.13
CG C55A,-0.0412 ± 0.7,0.0708 ± 0.088
CG C52A A53C A54C C55A,0.277 ± 0.23,0.0708 ± 0.21
CG A107C,-0.569 ± 1.1,-0.425 ± 0.35
CG A107T,-0.794 ± 0.79,-0.795 ± 0.44
CG A107G,-0.592 ± 0.8,-0.554 ± 0.26
CG A93G,-0.13 ± 0.37,-0.207 ± 0.083
CG A93C,-0.0609 ± 0.5,-0.288 ± 0.19

Variant,relative integration efficiency (log2) [1],relative integration efficiency (log2) [2]
CG A93T,-0.975 ± 0.63,-0.479 ± 0.33
CG A70C C71A,-1.75 ± 1.2,-1.24 ± 0.54
CG A96C C97A,-2 ± 1,-1.33 ± 0.57
CG A62G,0.446 ± 0.39,0.318 ± 0.17
CG A62T,1.22 ± 0.39,1.17 ± 0.29
CG A65T,0.125 ± 0.051,0.0807 ± 0.096
CG A65G,0.108 ± 0.82,0.247 ± 0.21
CG A65C,0.328 ± 0.076,0.247 ± 0.051
CG C18G C72G C98G,-0.915 ± 0.23,-0.987 ± 0.56
CG A91C A92C,0.242 ± 0.39,-0.116 ± 0.2
CG C18A,0.107 ± 0.17,-0.181 ± 0.016
CG C18G,0.0813 ± 0.047,0.259 ± 0.083
CG C18T,0.181 ± 0.51,0.16 ± 0.08
CG A107C T108G,-0.997 ± 1.2,-1.01 ± 0.6
CG A118T A119T,0.266 ± 0.26,-0.158 ± 0.014
CG A99T T100A A101T A102T,-0.997 ± 0.78,-1.06 ± 0.48
CG A67G,-0.325 ± 0.26,-0.269 ± 0.083
CG A67C,-0.106 ± 0.44,-0.129 ± 0.051
CG A67T,-0.588 ± 0.78,-0.202 ± 0.27
CG A64T A65T,0.0165 ± 0.48,0.469 ± 0.084
CG C55G T56A,0.0301 ± 0.44,0.0691 ± 0.024
CG A64T,-0.053 ± 0.081,-0.229 ± 0.11
CG A64G,-0.0623 ± 0.097,-0.383 ± 0.14

Variant,relative integration efficiency (log2) [1],relative integration efficiency (log2) [2]
CG A64C,-0.814 ± 1.1,-0.0626 ± 0.11
CG A107T T108A,-0.991 ± 0.38,-0.981 ± 0.55
CG A95C A96C,-0.693 ± 0.86,-0.385 ± 0.4
CG A90T,-0.375 ± 0.31,-0.404 ± 0.16
CG A90C,-0.155 ± 0.19,-0.278 ± 0.11
CG A90G,-0.331 ± 0.48,-0.339 ± 0.053
CG A83C T84G,-0.6 ± 0.69,-0.94 ± 0.4
TG A70C T76A T86G,0.145 ± 0.46,-0.133 ± 0.18
CG A69C,-0.309 ± 0.7,-0.363 ± 0.1
CG A69G,-0.41 ± 0.78,-0.422 ± 0.41
CG A69T,-0.153 ± 0.2,-0.525 ± 0.1
CG A77C T78G,0.461 ± 0.32,0.644 ± 0.21
CG A75C T76G,-2.22 ± 0.87,-1.59 ± 0.54
CG C14G A15T A16T C17G,-1.31 ± 0.38,-1.26 ± 0.49
CG A109T T110A T111A T112A,-1.2 ± 0.55,-1.22 ± 0.46
CG A109T T110A,-0.674 ± 0.43,-0.271 ± 0.27
CG A73T,-0.055 ± 0.17,-0.536 ± 0.45
CG A73C,-2.78 ± 1.5,-1.14 ± 0.6
CG A73G,0.14 ± 0.13,0.0329 ± 0.31
CG A90C A91C,-0.406 ± 0.87,-0.15 ± 0.34
CG A69T A70T,-0.797 ± 0.57,-0.395 ± 0.4
CG A62T C63G A64T A65T,0.238 ± 0.12,0.339 ± 0.046
TG A70C T76A T84A C87A,0.577 ± 0.018,-0.0929 ± 0.15

Variant,relative integration efficiency (log2) [1],relative integration efficiency (log2) [2]
CG A101C,-1.67 ± 0.92,-1.29 ± 0.49
CG A101T,-0.501 ± 0.29,-0.599 ± 0.23
CG A101G,-1.62 ± 1.1,-1.22 ± 0.47
CG A81T T82A,-1.34 ± 0.81,-1.03 ± 0.48
CG A66C A67C,-0.404 ± 0.29,-0.0641 ± 0.033
CG A109C T110G T111G T112G,-1.67 ± 0.36,-1.4 ± 0.41
CG A118C A119C,0.178 ± 0.4,-0.00591 ± 0.078
CG A69C A70C C71A C72A,-1.64 ± 0.34,-1.88 ± 0.72
CG A92C A93C,-0.222 ± 0.86,-0.331 ± 0.24
CG A119C T120G,-0.429 ± 1.1,-0.131 ± 0.072
CG A73C T74G A75C T76G,-1.86 ± 0.67,-2.23 ± 0.73
CG A96C,0.848 ± 0.0087,0.7239 ± 0.0024
CG A96T,-0.52 ± 0.14,-0.314 ± 0.13
CG A96G,-1.06 ± 0.18,-0.704 ± 0.32
CG A99C T100G,-1.66 ± 1.1,-1.87 ± 0.76
CG C52A A53C,0.0739 ± 0.63,-0.177 ± 0.1
CG A90C A91C A92C A93C,-0.132 ± 0.77,-0.283 ± 0.31
CG A96T C97G C98G A99T,-2 ± 1.1,-2.05 ± 0.9
CG C52G A53T,0.253 ± 0.28,0.138 ± 0.048
CG A66T,0.195 ± 0.21,0.0703 ± 0.19
CG A66C,0.113 ± 0.11,-0.147 ± 0.047
CG A66G,-0.258 ± 0.65,0.0591 ± 0.047
CG C18A A19C T20G A21C,-2.8 ± 0.18,-3.18 ± 0.65

# From the supplement of paper PMC10201428
